Literature values as cited in publication PMC3505813.

Experiments:
[1] = biological target: aminopeptidase N (APN) (Homo sapiens) (UniProt P15144)
VCAM-1 (Homo sapiens) = VCAM-1 (Homo sapiens) (UniProt P19320)
Sequence of UniProt P19320 (P19320 25-698): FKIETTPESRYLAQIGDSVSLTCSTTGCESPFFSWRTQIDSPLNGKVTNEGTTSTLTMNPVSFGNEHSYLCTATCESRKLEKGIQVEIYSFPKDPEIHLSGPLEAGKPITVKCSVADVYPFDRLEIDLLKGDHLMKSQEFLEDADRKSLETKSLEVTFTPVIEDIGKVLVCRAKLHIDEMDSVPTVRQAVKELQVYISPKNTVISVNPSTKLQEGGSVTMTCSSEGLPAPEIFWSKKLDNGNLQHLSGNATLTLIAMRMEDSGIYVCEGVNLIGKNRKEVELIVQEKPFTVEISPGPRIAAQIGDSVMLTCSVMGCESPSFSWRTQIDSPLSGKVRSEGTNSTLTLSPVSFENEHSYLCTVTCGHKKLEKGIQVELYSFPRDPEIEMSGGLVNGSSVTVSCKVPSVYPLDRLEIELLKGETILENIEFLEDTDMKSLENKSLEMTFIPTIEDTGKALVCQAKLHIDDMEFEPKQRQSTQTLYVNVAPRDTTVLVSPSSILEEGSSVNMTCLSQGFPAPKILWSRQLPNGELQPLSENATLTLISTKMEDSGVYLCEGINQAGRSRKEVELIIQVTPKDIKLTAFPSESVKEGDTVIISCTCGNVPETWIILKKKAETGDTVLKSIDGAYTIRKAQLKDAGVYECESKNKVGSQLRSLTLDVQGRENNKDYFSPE

Sequence of UniProt P15144 (P15144 2-967): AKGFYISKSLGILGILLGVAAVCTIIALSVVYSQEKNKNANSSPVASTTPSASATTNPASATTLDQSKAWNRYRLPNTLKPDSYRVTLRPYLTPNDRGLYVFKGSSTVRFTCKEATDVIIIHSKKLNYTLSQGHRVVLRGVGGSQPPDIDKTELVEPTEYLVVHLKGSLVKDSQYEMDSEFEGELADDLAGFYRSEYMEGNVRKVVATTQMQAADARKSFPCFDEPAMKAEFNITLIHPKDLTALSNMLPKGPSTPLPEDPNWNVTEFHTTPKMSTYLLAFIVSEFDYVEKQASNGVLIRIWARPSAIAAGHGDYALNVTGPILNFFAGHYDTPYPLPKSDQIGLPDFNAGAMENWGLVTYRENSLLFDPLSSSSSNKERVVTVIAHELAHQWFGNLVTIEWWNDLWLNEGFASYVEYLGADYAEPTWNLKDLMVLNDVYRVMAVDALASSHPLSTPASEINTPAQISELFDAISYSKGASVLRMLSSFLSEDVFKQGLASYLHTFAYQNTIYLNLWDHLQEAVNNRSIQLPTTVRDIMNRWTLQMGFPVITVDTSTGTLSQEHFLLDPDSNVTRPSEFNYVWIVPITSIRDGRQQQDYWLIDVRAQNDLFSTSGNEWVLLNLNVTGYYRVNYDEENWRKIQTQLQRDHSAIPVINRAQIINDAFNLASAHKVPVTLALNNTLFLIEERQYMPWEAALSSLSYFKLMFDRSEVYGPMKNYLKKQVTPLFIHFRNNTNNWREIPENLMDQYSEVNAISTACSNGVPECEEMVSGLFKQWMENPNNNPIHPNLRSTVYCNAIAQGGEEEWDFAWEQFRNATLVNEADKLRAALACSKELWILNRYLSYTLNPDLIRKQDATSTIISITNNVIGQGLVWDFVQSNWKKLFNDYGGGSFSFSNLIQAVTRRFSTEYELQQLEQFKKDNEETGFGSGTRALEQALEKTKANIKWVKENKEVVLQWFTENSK

Row | Kd [1] | Kd (VCAM-1 (Homo sapiens)) | Substance
1 | 300 µM |  | NGR peptide
2 |  | 30 µM | VHP peptide
